Patent US20160215020A1 (published 2016)

Molecular target: complement component C3 (human) (human, UniProt P01024 23-1663)
Experiment: cell-based or functional assay

IC50, classical complement inhibition assay (C3b deposition ELISA), as a function of CA28 moiety concentration: 1.93 µM
B1: (CA28-AEEAc)8-PEG40k (peptide)
peptide: ICVWQDWGAHRCTK
modifications: N-terminal acetyl; (1Me)Trp at position 4; disulfide Cys2-Cys12; AEEAc between Thr13 and Lys; C-terminal amide; Lys side chain coupled to an arm of an eight-arm 40 kD PEG (NOF SUNBRIGHT HGEO-400GS)
